Measurements published in the supplement of paper PMC12783771.
± gives the standard deviation of the averaged measurements.

B1: library; a variant is named by its letters at X, in order (parent)
chain: MNIQIGELAKRTACPVVTIRFYEQEGLLPPPGRSRGNFRLYGEEHVERLQFIRHCRSLDMPLSXVRTLLSYRKRPDQDCGEVXMLLDEHIRQVESRIGALLELXHHXVELREACSGARPAQSCGILQXLSXCVCXTRGTTAHXSD

Tests used:
[1] = variants of: B1; experiment: sfGFP reporter fluorescence (15 h) (µM FITC); higher = higher leak; settings: library round: Round 3; ligand: none
Method: (§1)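 Cell-free biosensing: 1 µL Echo-assembled CFE reactions with linear PbrR variant templates (5 nM) and pPbrR-sfGFP reporter, with 1 µM Pb, 30 µM Zn or no ligand; endpoint sfGFP fluorescence after 15 h at 30 °C calibrated as µM FITC. Round 3 ML-predicted PbrR mutants; up to 3 biological replicates.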

[2] = variants of: B1; experiment: sfGFP reporter fluorescence (15 h) (µM FITC); higher = stronger transcriptional activation; settings: library round: Round 3
Method: as §1

Row | Variant | sfGFP reporter fluorescence [1] | sfGFP reporter fluorescence ([2]; ligand: 1 µM Pb) | sfGFP reporter fluorescence ([2]; ligand: 30 µM Zn)
1 | DNKCGAAY | 1.05 ± 0.072 | 2.12 ± 0.14 | 2.26 ± 0.041
2 | DNKCMDAK G124A | 0.531 ± 0.049 | 2.11 ± 0.15 | 2.65 ± 0.21
3 | DTKLGMPP V108L | 0.0413 ± 0.00089 | 0.144 ± 0.0074 | 0.187 ± 0.0045
4 | KNRCMDDP P61N | 2.26 ± 0.13 | 2.97 ± 0.17 | 2.85 ± 0.064
5 | DNKCGADY M60L | 1.36 ± 0.092 | 1.92 ± 0.1 | 2.58 ± 0.11
6 | DNKCGAAP H54C C55A | 0.912 ± 0.075 | 1.67 ± 0.091 | 1.92 ± 0.15
7 | DCVLGDDP V16C H54A | 0.0426 ± 0.0029 | 0.127 ± 0.0026 | 0.0484 ± 0.0029
8 | DNVCMDDP Y41F P61N | 0.828 ± 0.023 | 2.98 ± 0.34 | 2.92 ± 0.049
9 | DNRCIDAK G124A | 0.395 ± 0.042 | 1.51 ± 0.12 | 2.32 ± 0.17
10 | KNVCMDDP V16C | 1.32 ± 0.056 | 3.46 ± 0.1 | 3.28 ± 0.18
11 | KNVCMDDP M60L | 3.21 ± 0.26 | 3.58 ± 0.098 | 3.18 ± 0.16
12 | KNKCIDDP M60L P61N | 1.99 ± 0.26 | 3.23 ± 0.31 | 2.88 ± 0.25
13 | LIKCGAAP H54C C55P H106L | 0.0448 ± 0.0034 | 0.0419 ± 0.0013 | 0.0486 ± 0.0017
14 | KNKCMDDP M60L P61D | 3.01 ± 0.32 | 3.17 ± 0.26 | 3.28 ± 0.24
15 | DNKLGDDP | 0.0412 ± 0.002 | 0.0516 ± 0.0024 | 0.416 ± 0.055
16 | KNMCMDDP P61N | 1.45 ± 0.17 | 2.43 ± 0.21 | 2.66 ± 0.22
17 | DNRLGAPL | 0.0656 ± 0.0041 | 0.262 ± 0.0096 | 0.905 ± 0.11
18 | DNKLGAPY V133A | 0.0571 ± 0.00067 | 0.174 ± 0.0037 | 0.728 ± 0.029
19 | KNKLGDAP P61N L62I V108E | 0.0795 ± 0.0049 | 0.275 ± 0.019 | 1.08 ± 0.098
20 | DTKLGAPW Q121A | 0.0438 ± 0.0019 | 0.216 ± 0.0053 | 0.277 ± 0.013
21 | KIVCMDDP | 0.424 ± 0.064 | 1.96 ± 0.25 | 1.78 ± 0.059
22 | DTKCMDAP G124A | 0.212 ± 0.015 | 1.58 ± 0.084 | 2.41 ± 0.38

Row | Variant | sfGFP reporter fluorescence [1] | sfGFP reporter fluorescence ([2]; ligand: 1 µM Pb) | sfGFP reporter fluorescence ([2]; ligand: 30 µM Zn)
23 | KNVLMDDP M60L P61N | 0.606 ± 0.027 | 1.64 ± 0.097 | 2.45 ± 0.11
24 | KNICMDDP M60L | 2.28 ± 0.1 | 3.14 ± 0.26 | 3.216 ± 0.027
25 | DTKLGSRP V108L | 0.0395 ± 0.0015 | 0.117 ± 0.0088 | 0.28 ± 0.012
26 | KNVCMDDP V16C P61N | 0.0997 ± 0.0099 | 0.636 ± 0.067 | 0.579 ± 0.061
27 | DNKCGAAP H54C C55P H106L | 0.04838 ± 0.00034 | 0.0446 ± 0.0014 | 0.0485 ± 0.0037
28 | KNKCTDDP M60L P61N | 2.34 ± 0.2 | 3.48 ± 0.11 | 3.2 ± 0.18
29 | DVVLGDDR H106A | 0.043 ± 0.0021 | 0.126 ± 0.007 | 0.0489 ± 0.0029
30 | KCVCMDDP V16C | 0.185 ± 0.012 | 1.75 ± 0.16 | 0.434 ± 0.039
31 | LILCGAAC V16C H54C C55P H106A | 0.0452 ± 0.0039 | 0.0421 ± 0.0021 | 0.0492 ± 0.0021
32 | KFVLGDDP P61T H106A | 0.0442 ± 0.0014 | 0.0637 ± 0.0021 | 0.0488 ± 0.0034
33 | DTKLGAPW V108L | 0.0408 ± 0.002 | 0.146 ± 0.0032 | 0.1781 ± 0.0015
34 | DNVLGDDY H54A H142C | 0.0421 ± 0.0015 | 0.0519 ± 0.0017 | 0.136 ± 0.0031
35 | NNKCMDDP M60L P61N | 2.66 ± 0.24 | 3.55 ± 0.13 | 3.4 ± 0.14
36 | DNVCMDDP V16C P61N | 0.092 ± 0.0024 | 0.45 ± 0.015 | 0.463 ± 0.01
37 | DTKLGSDP Q121A H142A | 0.0408 ± 0.0014 | 0.106 ± 0.0044 | 0.472 ± 0.015
38 | KFVLGDDR H106N | 0.0633 ± 0.0012 | 1.16 ± 0.054 | 0.2633 ± 0.0014
39 | DNRCIDDP M60L P61N | 0.808 ± 0.044 | 1.53 ± 0.025 | 2.29 ± 0.32
40 | KNVCIDDP M60L P61N | 0.453 ± 0.036 | 1.86 ± 0.087 | 2.32 ± 0.15
41 | ENKCMDAK | 0.33 ± 0.045 | 1.43 ± 0.15 | 2.44 ± 0.15
42 | DSKLGHPY | 0.0395 ± 0.00071 | 0.112 ± 0.007 | 0.234 ± 0.033
43 | KFVLGDDA H106A | 0.0507 ± 0.0013 | 0.541 ± 0.028 | 0.104 ± 0.0043
44 | DTKIGDDP V108L E112A | 0.0428 ± 0.0025 | 0.094 ± 0.0043 | 0.294 ± 0.03

Row | Variant | sfGFP reporter fluorescence [1] | sfGFP reporter fluorescence ([2]; ligand: 1 µM Pb) | sfGFP reporter fluorescence ([2]; ligand: 30 µM Zn)
45 | DTKLGSPP V108L Q121A | 0.0413 ± 0.00089 | 0.2 ± 0.0066 | 0.337 ± 0.004
46 | DNRCGAAP | 1.21 ± 0.066 | 2.35 ± 0.047 | 2.34 ± 0.039
47 | LCKCGAAP H54C C55P H106L | 0.0458 ± 0.0017 | 0.0424 ± 0.0028 | 0.0474 ± 0.0026
48 | LNKCGAAP H54C C55P H106L | 0.0467 ± 0.0041 | 0.044 ± 0.0032 | 0.0477 ± 0.0034
49 | DTKLGCDA Q121A | 0.0408 ± 0.00071 | 0.107 ± 0.0045 | 0.117 ± 0.0042
50 | DNRCMDAK | 1.49 ± 0.11 | 2.51 ± 0.053 | 2.61 ± 0.05
51 | DNRCIDAK | 0.674 ± 0.12 | 1.93 ± 0.22 | 2.51 ± 0.34
52 | DTKLGHPY Q121A | 0.0423 ± 0.0015 | 0.206 ± 0.019 | 0.289 ± 0.021
53 | DNKCMDAA D87E | 0.936 ± 0.1 | 2.16 ± 0.15 | 2.28 ± 0.19
54 | DNRLHCDL E109L | 0.0447 ± 0.0052 | 0.094 ± 0.0039 | 0.23 ± 0.0064
55 | KFVLGDDT H106A | 0.0446 ± 0.0026 | 0.549 ± 0.023 | 0.095 ± 0.0055
56 | KNVCGDDP M60L P61S | 1.34 ± 0.11 | 3.29 ± 0.12 | 2.58 ± 0.36
57 | LCKCGAAP V16C H54C C55P H106L | 0.0465 ± 0.0012 | 0.04402 ± 0.00034 | 0.0492 ± 0.00085
58 | DCKVGDDP V82I L85M | 0.0458 ± 0.0022 | 0.329 ± 0.034 | 0.128 ± 0.0044
59 | DNKCGSAY | 0.873 ± 0.033 | 2.1 ± 0.24 | 2.35 ± 0.2
60 | LILCGAAC V16C H54C C55P E81A H106A | 0.0437 ± 0.0031 | 0.0414 ± 0.0022 | 0.0463 ± 0.0019
61 | KTVLIDDP P61T | 0.0467 ± 0.002 | 0.106 ± 0.0053 | 0.251 ± 0.023
62 | DTKLGDPR V108L | 0.043 ± 0.0024 | 0.0866 ± 0.0042 | 0.142 ± 0.0031
63 | DTKLGDAL Q121A | 0.04099 ± 0.00034 | 0.104 ± 0.004 | 0.329 ± 0.015
64 | DNKCGADY G124A | 0.267 ± 0.013 | 1.31 ± 0.084 | 2.05 ± 0.041
65 | TIVLGDDR H106A | 0.0524 ± 0.0029 | 0.448 ± 0.023 | 0.0673 ± 0.0027
66 | DTKLGSPP V108L | 0.0404 ± 0.0007 | 0.127 ± 0.0092 | 0.186 ± 0.0066

Row | Variant | sfGFP reporter fluorescence [1] | sfGFP reporter fluorescence ([2]; ligand: 1 µM Pb) | sfGFP reporter fluorescence ([2]; ligand: 30 µM Zn)
67 | KNVCMDDP M60L P61N | 0.987 ± 0.13 | 2.86 ± 0.2 | 2.86 ± 0.26
68 | DNRCMDAK D87E | 1.06 ± 0.069 | 2.46 ± 0.12 | 2.56 ± 0.13
69 | DSKLGSPP V108L | 0.0407 ± 0.0012 | 0.121 ± 0.0045 | 0.247 ± 0.0044
70 | DTKCIDAP I125L | 0.059 ± 0.0049 | 0.0617 ± 0.0061 | 0.614 ± 0.022
71 | DTKLGAPL Q121A | 0.0458 ± 0.0015 | 0.245 ± 0.019 | 0.407 ± 0.017
72 | KITLGDDR H106A | 0.046 ± 0.001 | 0.452 ± 0.026 | 0.0503 ± 0.0012
73 | DTKCGAAP | 0.264 ± 0.019 | 1.56 ± 0.061 | 2.21 ± 0.16
74 | KNKCSDDP M60L P61N | 2.09 ± 0.17 | 3.3 ± 0.17 | 3.18 ± 0.21
75 | DTKLGDRR E109L | 0.0416 ± 0.0019 | 0.103 ± 0.005 | 0.224 ± 0.0067
76 | KNVLGDDR I90C H106A | 0.0676 ± 0.0026 | 0.502 ± 0.032 | 0.74 ± 0.058
77 | KIVLGDDR L62I | 0.0483 ± 0.0021 | 0.453 ± 0.018 | 0.09962 ± 0.00071
78 | DTKLGSDP V108L H142A | 0.0396 ± 0.00089 | 0.076 ± 0.0048 | 0.278 ± 0.029
79 | DTKCGADI | 0.227 ± 0.0097 | 1.54 ± 0.036 | 2.16 ± 0.09
80 | KIVLGDDR H106E | 0.0556 ± 0.0015 | 0.573 ± 0.037 | 0.0612 ± 0.0023
81 | TTKCGDRP | 1.83 ± 0.057 | 2.37 ± 0.091 | 2.74 ± 0.22
82 | DTKCIDAK | 0.305 ± 0.035 | 1.87 ± 0.27 | 2.86 ± 0.33
83 | LIKLGDDP V16C M60V E81A R111A | 0.0752 ± 0.0081 | 0.0783 ± 0.012 | 0.0505 ± 0.0042
84 | LIVCGAAP V16C H54C C55P H106A | 0.0452 ± 0.0017 | 0.0428 ± 0.0019 | 0.0456 ± 0.0037
85 | LIVCGAAP V16C H54C C55P H106L | 0.0465 ± 0.0015 | 0.0427 ± 0.0018 | 0.0473 ± 0.0049
86 | KNVCGADP M60L | 3.05 ± 0.41 | 3.59 ± 0.26 | 3.01 ± 0.067
87 | DSKLGAPW | 0.043 ± 0.0014 | 0.138 ± 0.012 | 0.227 ± 0.025
88 | DNKCIDAK M84A G124A | 0.548 ± 0.043 | 2.01 ± 0.13 | 2.75 ± 0.23
